# Assay results as given in paper PMC9465349, “G protein–coupled receptor kinase phosphorylation of distal C-tail sites specifies βarrestin1-mediated signaling by chemokine receptor CXCR4” (The Journal of Biological Chemistry, 2022).
# B1: βarrestin1-GFP10 (natural protein, UniProt P49407 1-418, looked up)
# chain: MGDKGTRVFKKASPNGKLTVYLGKRDFVDHIDLVDPVDGVVLVDPEYLKERRVYVTLTCAFRYGREDLDVLGLTFRKDLFVANVQSFPPAPEDKKPLTRLQERLIKKLGEHAYPFTFEIPPNLPCSVTLQPGPEDTGKACGVDYEVKAFCAENLEEKIHKRNSVRLVIRKVQYAPERPGPQPTAETTRQFLMSDKPLHLEASLDKEIYYHGEPISVNVHVTNNTNKTVKKIKISVRQYADICLFNTAQYKCPVAMEEADDTVAPSSTFCKVYTLTPFLANNREKRGLALDGKLKHEDTNLASSTLLREGANREILGIIVSYKVKVKLVVSRGGLLGDLASSDVAVELPFTLMHPKPKEEPPHREVPENETPVDTNLIELDTNDDDIVFEDFARQRLKGMKDDKEEEEDGTGSPQLNNR
# notes: βarrestin1 (βarr1); plasmid a gift from Michel Bouvier; Gift plasmid; also called βarr1-GFP; βarr1-GFP^10; source: HEK293, transiently transfected (PEI), in live cells
# Key:
# Conditions in all cases: partners not purified
# βarrestin1-GFP10 [1] = target: B1; experiment: FRET or BRET; BRET2 in live HEK293 cells coexpressing FLAG-AT1a, Rluc8-STAM1 and βarr1-GFP; increasing concentrations of angiotensin II, 10 min, 37 °C
# βarrestin1-GFP10 [2] = target: B1; experiment: FRET or BRET; BRET2 in live HEK293 cells coexpressing FLAG-NTS1, Rluc8-STAM1 and βarr1-GFP; increasing concentrations of neurotensin, 10 min, 37 °C
# CXCR4-Rluc3 [3] = target: T1, CXCR4-Rluc3 (UniProt P61073 1-352); experiment: FRET or BRET; as a13 for CXCR4-Rluc3 and βarr1-GFP, but in the presence of 30 μM GRK2/3 inhibitor compound 101
# T1 construct: chemokine receptor CXCR4; plasmid a gift from Nikolaus Heveker; Gift plasmid; also called Rluc3-tagged CXCR4; source: HEK293, transiently transfected (PEI), in live cells
# CXCR4-Rluc3 [4] = target: T1, CXCR4-Rluc3; experiment: FRET or BRET; BRET2 in live HEK293 cells coexpressing a GPCR tagged with Rluc (CXCR4-Rluc3, or GPCR-Rluc8; donor) and βarr1-GFP10 (acceptor); increasing concentrations of the receptor's agonist at 37 °C; vehicle or 1 μM Gö6983 (little effect, CXCR4)
# [5] = target: T2, NTS1-Rluc8 (neurotensin receptor 1) (UniProt P30989 1-418); experiment: as above
# T2 construct: neurotensin receptor 1 (NTS1); 'the NTS1-coding region' amplified by PCR from the NTS1-Tango plasmid; New plasmid; source: HEK293, transiently transfected (PEI), in live cells
# T2 sequence (P30989 whole entry): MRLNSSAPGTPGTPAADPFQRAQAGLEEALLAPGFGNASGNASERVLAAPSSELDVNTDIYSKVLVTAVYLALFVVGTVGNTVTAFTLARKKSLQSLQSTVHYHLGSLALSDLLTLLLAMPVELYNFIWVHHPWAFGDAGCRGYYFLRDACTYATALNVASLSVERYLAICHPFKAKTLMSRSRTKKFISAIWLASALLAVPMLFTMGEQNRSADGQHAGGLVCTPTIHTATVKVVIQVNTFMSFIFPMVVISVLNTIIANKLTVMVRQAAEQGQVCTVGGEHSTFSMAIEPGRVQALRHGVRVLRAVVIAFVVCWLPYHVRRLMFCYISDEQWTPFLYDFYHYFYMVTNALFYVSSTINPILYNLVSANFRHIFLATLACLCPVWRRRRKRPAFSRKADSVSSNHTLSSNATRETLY
# T1 sequence (P61073 whole entry): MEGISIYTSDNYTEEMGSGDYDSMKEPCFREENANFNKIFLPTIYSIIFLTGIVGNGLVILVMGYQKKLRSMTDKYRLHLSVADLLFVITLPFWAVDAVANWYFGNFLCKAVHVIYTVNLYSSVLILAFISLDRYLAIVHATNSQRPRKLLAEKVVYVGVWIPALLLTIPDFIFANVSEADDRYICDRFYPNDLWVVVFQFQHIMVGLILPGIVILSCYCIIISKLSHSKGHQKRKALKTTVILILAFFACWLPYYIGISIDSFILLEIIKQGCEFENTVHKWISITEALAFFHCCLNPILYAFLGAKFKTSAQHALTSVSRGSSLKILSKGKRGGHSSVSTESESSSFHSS
Binder,potency (EC50) of the agonist angiotensin II for the BRET response (βarrestin1-GFP10 [1]) [nM],potency (EC50) of the agonist neurotensin for the BRET response (βarrestin1-GFP10 [2]) [nM],EC50 of the agonist CXCL12 for the BRET response (with GRK2/3 inhibitor compound 101) (CXCR4-Rluc3 [3]) [nM],EC50 of the agonist CXCL12 for the BRET response (vehicle) (CXCR4-Rluc3 [4]) [nM],potency (EC50) of the agonist neurotensin for the BRET response [5] [nM]
"STAM1 (signal-transducing adaptor molecule 1) tagged at the N terminus with Rluc8 (natural protein, UniProt Q92783 1-540, looked up, STAM1 (signal-transducing adaptor molecule 1); the plasmid holds 'the STAM1-coding region' in pcDNA3; New plasmid; Rluc8 fragment from pTRE-Tight-Rluc8 (Addgene 79844); also called Rluc8-STAM1; RLuc8-STAM1; source: HEK293, transiently transfected (PEI), in live cells; not shown: Rluc8, N-terminal, kept) MPLFATNPFDQDVEKATSEMNTAEDWGLILDICDKVGQSRTGPKDCLRSIMRRVNHKDPHVAMQALTLLGACVSNCGKIFHLEVCSRDFASEVSNVLNKGHPKVCEKLKALMVEWTDEFKNDPQLSLISAMIKNLKEQGVTFPAIGSQAAEQAKASPALVAKDPGTVANKKEEEDLAKAIELSLKEQRQQSTTLSTLYPSTSSLLTNHQHEGRKVRAIYDFEAAEDNELTFKAGEIITVLDDSDPNWWKGETHQGIGLFPSNFVTADLTAEPEMIKTEKKTVQFSDDVQVETIEPEPEPAFIDEDKMDQLLQMLQSTDPSDDQPDLPELLHLEAMCHQMGPLIDEKLEDIDRKHSELSELNVKVMEALSLYTKLMNEDPMYSMYAKLQNQPYYMQSSGVSGSQVYAGPPPSGAYLVAGNAQMSHLQSYSLPPEQLSSLSQAVVPPSANPALPSQQTQAAYPNTMVSSVQGNTYPSQAPVYSPPPAATAAAATADVTLYQNAGPNMPQVPNYNLTSSTLPQPGGSQQPPQPQQPYSQKALL",70,0.22,–,–,–
B1,–,–,7.79,0.3,0.13
